B1: Ubiquitin-like modifier-activating enzyme ATG7 (Saccharomyces cerevisiae), P38862 (parent)
chain: MSSERVLSYAPAFKSFLDTSFFQELSRLKLDVLKLDSTCQPLTVNLDLHNIPKSADQVPLFLTNRSFEKHNNKRTNEVPLQGSIFNFNVLDEFKNLDKQLFLHQRALECWEDGIKDINKCVSFVIISFADLKKYRFYYWLGVPCFQRPSSTVLHVRPEPSLKGLFSKCQKWFDVNYSKWVCILDADDEIVNYDKCIIRKTKVLAIRDTSTMENVPSALTKNFLSVLQYDVPDLIDFKLLIIRQNEGSFALNATFASIDPQSSSSNPDMKVSGWERNVQGKLAPRVVDLSSLLDPLKIADQSVDLNLKLMKWRILPDLNLDIIKNTKVLLLGAGTLGCYVSRALIAWGVRKITFVDNGTVSYSNPVRQALYNFEDCGKPKAELAAASLKRIFPLMDATGVKLSIPMIGHKLVNEEAQHKDFDRLRALIKEHDIIFLLVDSRESRWLPSLLSNIENKTVINAALGFDSYLVMRHGNRDEQSSKQLGCYFCHDVVAPTDSLTDRTLDQMCTVTRPGVAMMASSLAVELMTSLLQTKYSGSETTVLGDIPHQIRGFLHNFSILKLETPAYEHCPACSPKVIEAFTDLGWEFVKKALEHPLYLEEISGLSVIKQEVERLGNDVFEWEDDESDEIA
partner: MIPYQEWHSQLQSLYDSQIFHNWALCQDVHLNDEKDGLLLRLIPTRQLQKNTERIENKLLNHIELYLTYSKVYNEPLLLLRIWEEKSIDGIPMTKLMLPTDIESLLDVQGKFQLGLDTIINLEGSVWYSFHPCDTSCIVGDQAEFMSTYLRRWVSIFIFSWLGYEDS
B2: Ubiquitin-like modifier-activating enzyme ATG7 (Saccharomyces cerevisiae), P38862 (parent)
chain: B1 chain
partner: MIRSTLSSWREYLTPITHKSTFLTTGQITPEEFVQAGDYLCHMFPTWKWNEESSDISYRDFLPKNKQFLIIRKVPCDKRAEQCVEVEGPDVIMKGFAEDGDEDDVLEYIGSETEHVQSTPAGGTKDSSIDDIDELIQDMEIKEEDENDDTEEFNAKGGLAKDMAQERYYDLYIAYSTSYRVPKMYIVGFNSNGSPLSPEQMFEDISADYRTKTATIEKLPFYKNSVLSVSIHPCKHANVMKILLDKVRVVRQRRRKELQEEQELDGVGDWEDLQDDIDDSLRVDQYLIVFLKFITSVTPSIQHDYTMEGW
B3: Autophagy-related protein 3 (Saccharomyces cerevisiae), P40344 (parent)
chain: B2 partner
partner: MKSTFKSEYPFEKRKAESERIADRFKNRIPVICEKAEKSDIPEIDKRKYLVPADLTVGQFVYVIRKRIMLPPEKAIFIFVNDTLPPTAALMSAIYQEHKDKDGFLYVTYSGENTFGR

Variants of: B1
Settings: with atg10_yeast ATG10, Q07879

effect of a mutation on the interaction	Variant
disrupting interaction strength	C507A
disrupting interaction strength	V285D
decreasing interaction strength	Y137A

Variants of: B2
Settings: with atg3_yeast ATG3, P40344

effect of a mutation on the interaction	Variant
decreasing interaction strength	F16A;F61A
decreasing interaction strength	P283D
decreasing interaction strength	V285A
disrupting interaction strength	C507A
decreasing interaction strength	K14A;F16A;D18A

Variants of: B3
Settings: with atg8_yeast ATG8, P38182

effect of a mutation on the interaction	Variant
disrupting interaction strength	R72A;K73A;Y168A
